Where two headings read alike, the source gives them in different places. Where a SMILES comes first, the peptide text is derived from it. Where no end group is shown, it is not given here. [ ]: non-standard residue; d: D form. The star is where a group is joined. DOTA = O=C(O)CN1CCN(CC(=O)O)CCN(CC(=O)*)CCN(CC(=O)O)CC1; Met(O2) = CS(=O)(=O)CC[C@H](N)C(=O)O; NS3/CN = chelator carrying 99mTc; 2Thi = N[C@@H](Cc1cccs1)C(=O)O

Data set [1] in a line: Lipophilicity (logP), partition in n-octanol/PBS (pH 7.4). The class given is physicochemical. As for the experimental part: The partition coefficient was measured for each compound in a biphasic system of n-octanol/PBS (pH 7.4). The biphasic mixture was shaken (vortex, 1 min) and then centrifuged (14,000 rpm, 5 min) before the organic (n-octanol) and aqueous (PBS, pH 7.4) phases were separated. The activity of each phase (corresponding to the content of radiobioconjugate) was determined by measuring γ-radiation, using a well-type NaI(Tl) detector. P was calculated as the ratio of activity in the organic versus aqueous phases (as an average value from at least three independent measurements). Immediately after the γ-radiation measurements, the aqueous phase was analyzed by HPLC (system 2) to determine whether the tested radiobioconjugate existed in the liquid phase in an unchanged form.

Data set [2] is classed as in vitro ADME, human. As to the method: Stability tests of 2a–e compounds in CSF and HS were performed similarly to the previous one. The solution (0.1 mL) of isolated 2a–e radiobioconjugate in 0.1 M PBS buffer (pH 7.4), was added to 0.9 mL of CSF or HS and incubated at 37 °C. After specific time intervals (1, 2, 4 and 24 h), a small sample (0.1–0.2 mL) of the mixture was taken, mixed with ethanol (0.3–0.5 mL) and shaken vigorously to precipitate protein components as well as part of the tested radiobioconjugate bound to protein components. The sample was then centrifuged (14,000 rpm, 5 min) and the supernatant separated. The radioactivities of both supernatant and precipitate were measured using the well-type NaI(Tl) detector (Institute of Nuclear Chemistry and Technology, Warsaw, Poland). […]

The target of data set [3] is T1, NK-1 receptors expressed on glioblastoma cells (U373 MG) (Homo sapiens, UniProt P25103).
T1 construct: host or cells: U373 MG (Uppsala) human glioblastoma astrocytoma cells
As to the kind of experiment: Saturation binding studies on U373 MG cells. As to conditions: 37 °C, 1.5 h, Scatchard analysis, mean ± SD of three experiments. As to the method: To determine the affinity of selected radiobioconjugates: […] One day before the experiment, 8 × 10^5 cells/well were seeded in six-well plates. To determine total binding, different concentrations of peptides (15.3 pM to 100 nM) were added to the cells and incubated at 37 °C for 1.5 h. Cellular uptake was stopped by aspirating the reaction supernatant, followed by washing twice with 1 mL of cold PBS. Finally, the cells were lysed using 1 M NaOH to detach them from the well plates. To determine nonspecific binding, the cells were incubated with 1000-fold excess of unlabelled peptides. The radioactivities of collected samples with cell pellets and supernatants were measured using Perkin Elmer automatic γ-counter. The specific binding was obtained by subtracting nonspecific binding from total binding. For estimating the receptor density (Bmax) and the dissociation constant (Kd) of the receptor for the studied radiobioconjugates, the Scatchard analysis method was used. Results are means ±SD of three individual experiments.

Data set [4] addresses [177Lu]DOTA-[Thi8,Met(O2)11]Substance P(1-11) 1-11 (Homo sapiens, UniProt P20366, 177Lu-DOTA, Thi8, Met(O2)11). As to the kind of experiment: radioligand binding.
Data set [5] deals with [177Lu]DOTA-[Thi8,Met(O2)11]Substance P(5-11) 5-11 (Homo sapiens, UniProt P20366, 177Lu-DOTA, Thi8, Met(O2)11). The data set is described as follows: radioligand binding.
For data set [6], the target named is [177Lu]DOTA-Substance P(4-11) 4-11 (Homo sapiens, UniProt P20366, 177Lu-DOTA). The data set is described as follows: radioligand binding.

Turning to `[C-]#[N+]CCCC(=O)N[C@@H](CCCNC(=N)N)C(=O)N1CCC[C@H]1C(=O)N[C@@H](CCCCN)C(=O)N1CCC[C@H]1C(=O)N[C@@H](CCC(N)=O)C(=O)N[C@@H](CCC(N)=O)C(=O)N[C@@H](Cc1ccccc1)C(=O)N[C@@H](Cc1ccccc1)C(=O)NCC(=O)N[C@@H](CC(C)C)C(=O)N[C@@H](CCSC)C(N)=O` [1a, [^99mTc]NS3/CN-SP(1–11), metal not drawn], the logP in data set [1] (n-octanol/PBS pH 7.4, [99mTc]NS3/CN-SP radiobioconjugates, read-out: logP) turned out to be 0.26 ± 0.05.

For the molecule `CSCC[C@H](NC(=O)[C@H](CC(C)C)NC(=O)CNC(=O)[C@H](Cc1ccccc1)NC(=O)[C@H](Cc1ccccc1)NC(=O)[C@H](CCC(N)=O)NC(=O)[C@H](CCC(N)=O)NC(=O)[C@@H]1CCCN1C(=O)[C@H](CCCCN)NC(=O)[C@@H]1CCCN1C(=O)[C@H](CCCNC(=N)N)NC(=O)CN1CCN(CC(=O)O)CCN(CC(=O)O)CCN(CC(=O)O)CC1)C(N)=O` [2a, [^177Lu]DOTA-SP(1–11), metal not drawn], the “Enzymatic biomolecule biodegradation in human serum (ITLC)” value (“Enzymatic biomolecule biodegradation” for short) in data set [2] is recorded as “only partial”. The molecule also returned a logP in data set [1] (pH 7.4) of -5.12 ± 0.06.

In data set [3], `CC(C)C[C@H](NC(=O)CNC(=O)[C@H](Cc1cccs1)NC(=O)[C@H](Cc1ccccc1)NC(=O)[C@H](CCC(N)=O)NC(=O)[C@H](CCC(N)=O)NC(=O)[C@@H]1CCCN1C(=O)[C@H](CCCCN)NC(=O)[C@@H]1CCCN1C(=O)[C@H](CCCNC(=N)N)NC(=O)CN1CCN(CC(=O)O)CCN(CC(=O)O)CCN(CC(=O)O)CC1)C(=O)N[C@@H](CCS(C)(=O)=O)C(N)=O` [2b, [^177Lu]DOTA-[Thi^8,Met(O2)^11]SP(1–11), metal not drawn] came in with a Kd of 0.0111 ± 0.0027 µM. In data set [2], the “Enzymatic biomolecule biodegradation” value is reported as “only partial”. In data set [1] (pH 7.4), this molecule had a logP of -5.28 ± 0.02.

Molecule `CSCC[C@H](NC(=O)[C@H](CC(C)C)NC(=O)CNC(=O)[C@H](Cc1ccccc1)NC(=O)[C@H](Cc1ccccc1)NC(=O)[C@H](CCC(N)=O)NC(=O)[C@H](CCC(N)=O)NC(=O)[C@@H]1CCCN1C(=O)CN1CCN(CC(=O)O)CCN(CC(=O)O)CCN(CC(=O)O)CC1)C(N)=O` [2c, [^177Lu]DOTA-SP(4–11), metal not drawn] registered a Kd in data set [3] of 0.0133 ± 0.0016 µM. The “Enzymatic biomolecule biodegradation” value in data set [2] is given as “only partial”. The logP in data set [1] (pH 7.4) is -2.93 ± 0.01.

Turning to `CSCC[C@H](NC(=O)[C@H](CC(C)C)NC(=O)CNC(=O)[C@H](Cc1ccccc1)NC(=O)[C@H](Cc1ccccc1)NC(=O)[C@H](CCC(N)=O)NC(=O)[C@H](CCC(N)=O)NC(=O)CN1CCN(CC(=O)O)CCN(CC(=O)O)CCN(CC(=O)O)CC1)C(N)=O` [2d, [^177Lu]DOTA-SP(5–11), metal not drawn] ({DOTA}-QQFFGLM-NH2), in data set [2], the “Enzymatic biomolecule biodegradation” value is recorded as “virtually all of the radiobiomolecule that was deposited onto the strip was degraded enzymatically”. The same molecule returned a logP in data set [1] (pH 7.4) of -2.68 ± 0.01.

`CC(C)C[C@H](NC(=O)CNC(=O)[C@H](Cc1cccs1)NC(=O)[C@H](Cc1ccccc1)NC(=O)[C@H](CCC(N)=O)NC(=O)[C@H](CCC(N)=O)NC(=O)CN1CCN(CC(=O)O)CCN(CC(=O)O)CCN(CC(=O)O)CC1)C(=O)N[C@@H](CCS(C)(=O)=O)C(N)=O` [2e, [^177Lu]DOTA-[Thi^8,Met(O2)^11]SP(5–11), metal not drawn] ({DOTA}-QQF[2Thi]GL[Met(O2)]-NH2) gave a Kd in data set [3] of 0.0487 ± 0.0051 µM. Moreover, in data set [2], the “Enzymatic biomolecule biodegradation” value is listed as “virtually all of the radiobiomolecule that was deposited onto the strip was degraded enzymatically”. In data set [1] (pH 7.4), this molecule registered a logP of -3.94 ± 0.01.

In data set [1] (pH 7.4), “[^99mTc]NS3/CN-SP(4–11) ({NS3/CN}-PQQFFGLM; ends and bridges not checked; also: 99mTc complex of NS3/CN chelate; UniProt P20366 61-68, looked up, fragment) [1c, SP(4–11) labelled with technetium-99m via NS3/CN-BFCA]” showed a logP of 0.09 ± 0.02.

In the case of “[^99mTc]NS3/CN-SP(5–11) ({NS3/CN}-QQFFGLM; ends and bridges not checked; also: 99mTc complex of NS3/CN chelate; UniProt P20366 62-68, looked up, fragment) [1d, SP(5–11) labelled with technetium-99m via NS3/CN-BFCA]”, the logP in data set [1] (pH 7.4) is recorded as 1.14 ± 0.01.

“[^99mTc]NS3/CN-[Thi^8,Met(O2)^11]SP(5–11) [1e]” gave a logP in data set [1] (pH 7.4) of 0.64 ± 0.02.

B1: NK-1 receptor (protein)
chain: MDNVLPVDSDLSPNISTNTSEPNQFVQPAWQIVLWAAAYTVIVVTSVVGNVVVMWIILAHKRMRTVTNYFLVNLAFAEASMAAFNTVVNFTYAVHNEWYYGLFYCKFHNFFPIAAVFASIYSMTAVAFDRYMAIIHPLQPRLSATATKVVICVIWVLALLLAFPQGYYSTTETMPSRVVCMIEWPEHPNKIYEKVYHICVTVLIYFLPLLVIGYAYTVVGITLWASEIPGDSSDRYHEQVSAKRKVVKMMIVVVCTFAICWLPFHIFFLLPYINPDLYLKKFIQQVYLAIMWLAMSSTMYNPIIYCCLNDRFRLGFKHAFRCCPFISAGDYEGLEMKSTRYLQTQGSVYKVSRLETTISTVVGAHEEEPEDGPKATPSSLDLTSNCSSRSDSKTMTESFSFSSNVLS
For B1, the Kd stood at 0.0111 µM in data set [4], 0.0487 µM in data set [5] and 0.0133 µM in data set [6].

As usually defined, the logP is the decadic logarithm of the partition coefficient of the neutral form, usually between octanol and water. Usually Kd stands for the equilibrium constant for the complex coming apart. Higher therefore signals weaker binding.

The values are drawn from article PMC6222600, “Application of Neurokinin-1 Receptor in Targeted Strategies for Glioma Treatment. Part I: Synthesis and Evaluation of Substance P Fragments Labeled with ^99mTc and ^177Lu as Potential Receptor Radiopharmaceuticals” (Molecules : A Journal of Synthetic Chemistry and Natural …, 2018).
